Results: the supplement of paper PMC9732359
± gives the uncertainty stated by the source.

Test: protein stability index of a GFP-peptide fusion (yeast GPS) (PSI 1-4); higher = more stable; sorted into four equal gates, so the index is relative within each strain
Procedure, shortened: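 Mid-log yeast cultures in leucine-free medium, carrying a pooled plasmid library, were sorted into four equal gates by their GFP/Cherry fluorescence ratio. Each plasmid expressed Cherry along with GFP fused upstream of a tiled 17-residue yeast protein peptide. Plasmids recovered from each gate were PCR-amplified and Illumina-sequenced, with reads assigned to strains by barcodes. The protein stability index was obtained by summing each gate's read frequency weighted by its gate number.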

Sequence	protein stability index (doa10∆)	protein stability index (pdr5∆)	protein stability index (san1∆)	protein stability index (ubr1∆)
IDNSPQAISYLHKLQRM [GRR1]	2.96 ± 0.058	2.48 ± 0.047	2.4 ± 0.045	2.69 ± 0.039
HALYLAPSGIRMHLAPA [SSN2]	1.32 ± 0.085	2.05 ± 0.085	2.09 ± 0.13	2.04 ± 0.061
GSKMEAKNEDDPAHSLN [AAR2]	2.34 ± 0.14	1.27 ± 0.13	1.23 ± 0.26	1.14 ± 0.15
RKLFPNWIKPSDSEIPP [PRP8]	3.42 ± 0.16	2.89 ± 0.11	2.91 ± 0.069	2.97 ± 0.053
ANLPWLGKAQNWAKFTA [RPN2]	3.34 ± 0.085	3.39 ± 0.091	3.11 ± 0.087	3.52 ± 0.082
ATTGGGLFGNKPNNTAN [YGL172W/NUP49]	3.62 ± 0.25	3.29 ± 0.21	3.66 ± 0.083	3.54 ± 0.18
QLNLNNLTPANILNMSM [PGD1]	3.04 ± 0.1	3.19 ± 0.07	2.75 ± 0.067	3.02 ± 0.045
ILGKNFDSVIVENLTVA [SMC1]	2.48 ± 0.08	2.15 ± 0.083	2.11 ± 0.075	2.19 ± 0.054
HNGAPHHAIEEAESLLQ [RPO21]	3.07 ± 0.12	3.39 ± 0.18	2.66 ± 0.29	3 ± 0.088
DRFKYRSVDRAGRKFKS [POP4]	3.04 ± 0.2	3.24 ± 0.18	3.52 ± 0.097	3.55 ± 0.16
TTDMISVLYQLSTSAFM [YML031W/NDC1]	1.42 ± 0.095	1.64 ± 0.14	1.75 ± 0.24	1.14 ± 0.11
EKGENPSCVYNLIGVIT [UBP6]	2.64 ± 0.072	2.79 ± 0.093	3.07 ± 0.081	3.06 ± 0.1
GNDTISKFYNMKQPYVF [SSN2]	3.12 ± 0.12	3.05 ± 0.11	3.2 ± 0.057	3.2 ± 0.065
SPPPQTHQSPPPPPQQS [SNF5]	2.87 ± 0.034	2.72 ± 0.029	2.75 ± 0.032	2.74 ± 0.03
LGSHSSSQKDGNDFKFN [REC8]	3.25 ± 0.07	3.24 ± 0.063	2.91 ± 0.081	3.22 ± 0.057
ETRPAQVILPMSPNHGT [FAS2]	2.43 ± 0.042	2.38 ± 0.04	2.46 ± 0.071	2.36 ± 0.036
KVKHDSQPFIKFLNFRP [SSN2]	2.88 ± 0.06	2.6 ± 0.063	2.49 ± 0.079	2.63 ± 0.041
KSRPDRPKPVSPPCYII [SNF5]	2.93 ± 0.063	3.08 ± 0.057	2.98 ± 0.069	2.95 ± 0.041
IESQMRDLILTEYGRKY [PRP8]	2.2 ± 0.1	2.04 ± 0.073	1.98 ± 0.098	3.03 ± 0.092
GSTGGLGASFGQQQQQS [YGL172W/NUP49]	2.76 ± 0.2	2.81 ± 0.076	2.12 ± 0.12	3.1 ± 0.1
IDLLTFQYGSRLPTFLK [RPP1]	1.89 ± 0.064	1.84 ± 0.052	1.6 ± 0.081	1.57 ± 0.047

Sequence	protein stability index (doa10∆)	protein stability index (pdr5∆)	protein stability index (san1∆)	protein stability index (ubr1∆)
VHVQLLINLKISPLMKS [SRB8]	1.44 ± 0.058	1.59 ± 0.048	1.55 ± 0.091	1.44 ± 0.05
LVVIRFGRKNDRQCMIM [DIB1]	2.4 ± 0.061	2.55 ± 0.055	2.33 ± 0.073	2.79 ± 0.038
LDTLPSEFDSRVKAMEV [RPT5]	2.93 ± 0.085	3.11 ± 0.098	3.2 ± 0.068	3.36 ± 0.1
ATESIKNRRRIHGELKT [SMC1]	2.83 ± 0.17	3.09 ± 0.12	2.28 ± 0.26	2.61 ± 0.14
TIHAKRKIVFRCSECIK [RPN4]	2.39 ± 0.056	2.73 ± 0.066	2.15 ± 0.11	2.59 ± 0.056
WSFEEVEVKDASLVDYV [RPS5]	1.32 ± 0.089	1.14 ± 0.06	1.22 ± 0.14	1.17 ± 0.056
FNYVAVGDVSNLPYLDE [QCR2]	3.2 ± 0.095	3.14 ± 0.11	2.98 ± 0.13	3.11 ± 0.06
QKRNAHGYFLQDKEKID [ITC1]	3.32 ± 0.098	3.38 ± 0.071	3.28 ± 0.048	3.42 ± 0.056
HVIQIPLNKPLLTEELA [TAF14]	2.2 ± 0.053	2.39 ± 0.037	2.49 ± 0.053	2.32 ± 0.039
DDTKETVYISSIALLKM [RPN11]	3.09 ± 0.087	2.77 ± 0.084	2.71 ± 0.048	2.93 ± 0.055
GWYHSHPGFGCWLSSVD [RPN11]	2.72 ± 0.12	3.09 ± 0.072	2.35 ± 0.087	2.64 ± 0.12
GIGALFTQQELQKQMGI [RPC34]	2.93 ± 0.11	3.39 ± 0.095	3.29 ± 0.085	2.69 ± 0.11
QMIQQRHQQLLRSRLQQ [SNF5]	2.08 ± 0.12	2.14 ± 0.15	2.71 ± 0.15	3.02 ± 0.12
KVYAQLLESYKTLSLKS [RPN7]	2.04 ± 0.062	2.56 ± 0.085	2 ± 0.11	1.32 ± 0.03
RGTTAVLKESIVNICDI [PUP1]		3.2 ± 0.22		1.79 ± 0.27
SAKQTAPNNSNGGSEEE [MED7]	3.45 ± 0.27			
CNSIINKLGALKTNFET [RPB11]	2.57 ± 0.089	2.42 ± 0.099	2.68 ± 0.088	3.05 ± 0.17
SLRRIRDEMSKAELPQW [MED8]	1.98 ± 0.071	2.36 ± 0.055	2.33 ± 0.072	1.92 ± 0.04
HISKIIGLDTQQVEGKL [RPN6]	2.95 ± 0.071	3.43 ± 0.093	2.9 ± 0.065	2.86 ± 0.059
NLRHERNSLETKLTTCK [YIL149C/MLP2]	2.83 ± 0.13	2.79 ± 0.14	2.93 ± 0.12	3.04 ± 0.077
NNMLYPREDKENNRLLF [RPB9]	3.13 ± 0.13	3.43 ± 0.16	2.78 ± 0.1	3.25 ± 0.22
